We go through 75 variants from paper PMC12102759 (2025).

The chains are these.
B1: MXI1 peptide 6-21 (Max-interacting protein 1), 16-mer library wild type / SIN3A PAH2 (SIN3A PAH domain, residues 295-383) (parent complex)
chain 1: MINVQRLLEAAEFLER
chain 2: SLQNNQPVEFNHAINYVNKIKNRFQGQPDIYKAFLEILHTYQKEQRNAKEAGGNYTPALTEQEVYAQVARLFKNQEDLLSEFGQFLPDA

The variants in the experiment derive from B1. As to the kind of experiment: proteomic peptide phage display deep mutational scan (ProP-PD DMS): M13 P8 16-mer library selected against immobilised GST-tagged bait for four days (rounds), NGS of the eluted pools per day and pseudo-replica; bait immobilised on MaxiSorp plates (10 µg), library pre-cleared on GST, 2 h binding at 4 °C, five washes; one round per day, days 1-4; value from days 2 and 3.
chain 1 E12G: the screen value was 0.00105 average fractional NGS count over selection days 2 and 3 (reads of this peptide / all reads for the bait, averaged over …. In the case of chain 1 E12V it was 0.000221 average fractional NGS count over selection days 2 and 3 (reads of this peptide / all reads for the bait, averaged over …; in that of chain 1 E12R, 0.00176 average fractional NGS count over selection days 2 and 3 (reads of this peptide / all reads for the bait, averaged over …; in that of chain 1 E12Q, 0.00319 average fractional NGS count over selection days 2 and 3 (reads of this peptide / all reads for the bait, averaged over …. In the case of chain 1 E12W it was 9.8e-05 average fractional NGS count over selection days 2 and 3 (reads of this peptide / all reads for the bait, averaged over …; in that of chain 1 E12Y, 0.000478 average fractional NGS count over selection days 2 and 3 (reads of this peptide / all reads for the bait, averaged over …; in that of chain 1 E12L, 0.0769 average fractional NGS count over selection days 2 and 3 (reads of this peptide / all reads for the bait, averaged over ….

As to chain 1 E12F, the screen value is 0.0145 average fractional NGS count over selection days 2 and 3 (reads of this peptide / all reads for the bait, averaged over …. With chain 1 V4L, the screen value was 0.000307 average fractional NGS count over selection days 2 and 3 (reads of this peptide / all reads for the bait, averaged over …. In the case of chain 1 V4H it was 0.000116 average fractional NGS count over selection days 2 and 3 (reads of this peptide / all reads for the bait, averaged over …; in that of chain 1 V4Y, 0.000247 average fractional NGS count over selection days 2 and 3 (reads of this peptide / all reads for the bait, averaged over …; in that of chain 1 V4A, 0.000356 average fractional NGS count over selection days 2 and 3 (reads of this peptide / all reads for the bait, averaged over …. The same measure for chain 1 V4W: 0.00027 average fractional NGS count over selection days 2 and 3 (reads of this peptide / all reads for the bait, averaged over …; for chain 1 L14P: 0.0014 average fractional NGS count over selection days 2 and 3 (reads of this peptide / all reads for the bait, averaged over …; for chain 1 L14S: 0.00955 average fractional NGS count over selection days 2 and 3 (reads of this peptide / all reads for the bait, averaged over …. chain 1 L14E: the screen value is 0.00161 average fractional NGS count over selection days 2 and 3 (reads of this peptide / all reads for the bait, averaged over …. In the case of chain 1 L14K it was 0.000523 average fractional NGS count over selection days 2 and 3 (reads of this peptide / all reads for the bait, averaged over …; in that of chain 1 L14R, 0.000773 average fractional NGS count over selection days 2 and 3 (reads of this peptide / all reads for the bait, averaged over …. The same measure for chain 1 L14N: 0.0048 average fractional NGS count over selection days 2 and 3 (reads of this peptide / all reads for the bait, averaged over …. In the case of chain 1 L14D it was 0.000292 average fractional NGS count over selection days 2 and 3 (reads of this peptide / all reads for the bait, averaged over ….

For the variant chain 1 L14V, the screen value is 0.000293 average fractional NGS count over selection days 2 and 3 (reads of this peptide / all reads for the bait, averaged over …. In the case of chain 1 L14G it was 0.000436 average fractional NGS count over selection days 2 and 3 (reads of this peptide / all reads for the bait, averaged over …; in that of chain 1 I2W, 0.00792 average fractional NGS count over selection days 2 and 3 (reads of this peptide / all reads for the bait, averaged over …. The same measure for chain 1 I2N: 0.00111 average fractional NGS count over selection days 2 and 3 (reads of this peptide / all reads for the bait, averaged over ….

chain 1 I2A: the screen value is 0.00266 average fractional NGS count over selection days 2 and 3 (reads of this peptide / all reads for the bait, averaged over …. With chain 1 I2F, the screen value is 0.000676 average fractional NGS count over selection days 2 and 3 (reads of this peptide / all reads for the bait, averaged over …. In the case of chain 1 I2Q it was 0.000479 average fractional NGS count over selection days 2 and 3 (reads of this peptide / all reads for the bait, averaged over …; in that of chain 1 I2Y, 0.00134 average fractional NGS count over selection days 2 and 3 (reads of this peptide / all reads for the bait, averaged over …; in that of chain 1 I2H, 0.000551 average fractional NGS count over selection days 2 and 3 (reads of this peptide / all reads for the bait, averaged over …. For the variant chain 1 N3M, the screen value is 0.0121 average fractional NGS count over selection days 2 and 3 (reads of this peptide / all reads for the bait, averaged over …. Turning to chain 1 N3H, the screen value was 0.000207 average fractional NGS count over selection days 2 and 3 (reads of this peptide / all reads for the bait, averaged over …. The same measure for chain 1 N3T: 0.00466 average fractional NGS count over selection days 2 and 3 (reads of this peptide / all reads for the bait, averaged over ….

Turning to chain 1 N3G, the screen value is 0.00333 average fractional NGS count over selection days 2 and 3 (reads of this peptide / all reads for the bait, averaged over …. Regarding chain 1 N3P, the screen value was 0.00138 average fractional NGS count over selection days 2 and 3 (reads of this peptide / all reads for the bait, averaged over …. The same measure for chain 1 N3W: 0.000465 average fractional NGS count over selection days 2 and 3 (reads of this peptide / all reads for the bait, averaged over ….

On to chain 1 N3Y, for which the screen value is 0.000298 average fractional NGS count over selection days 2 and 3 (reads of this peptide / all reads for the bait, averaged over …. Take chain 1 N3L: the screen value is 0.0228 average fractional NGS count over selection days 2 and 3 (reads of this peptide / all reads for the bait, averaged over …. Take chain 1 E9Y: the screen value is 0.000223 average fractional NGS count over selection days 2 and 3 (reads of this peptide / all reads for the bait, averaged over …. Take chain 1 E9V: the screen value is 0.000671 average fractional NGS count over selection days 2 and 3 (reads of this peptide / all reads for the bait, averaged over ….

For chain 1 E9A, the screen value was 0.000182 average fractional NGS count over selection days 2 and 3 (reads of this peptide / all reads for the bait, averaged over ….

On to chain 1 E9D, for which the screen value was 0.000993 average fractional NGS count over selection days 2 and 3 (reads of this peptide / all reads for the bait, averaged over ….

In the case of chain 1 E9H, the screen value is 0.000122 average fractional NGS count over selection days 2 and 3 (reads of this peptide / all reads for the bait, averaged over …. chain 1 E9N: the screen value is 0.0151 average fractional NGS count over selection days 2 and 3 (reads of this peptide / all reads for the bait, averaged over …. chain 1 A10V: the screen value is 0.000572 average fractional NGS count over selection days 2 and 3 (reads of this peptide / all reads for the bait, averaged over ….

As to chain 1 A10Y, the screen value was 0.000126 average fractional NGS count over selection days 2 and 3 (reads of this peptide / all reads for the bait, averaged over …. chain 1 A10G: the screen value is 0.00122 average fractional NGS count over selection days 2 and 3 (reads of this peptide / all reads for the bait, averaged over …. The same measure for chain 1 L8S: 0.000473 average fractional NGS count over selection days 2 and 3 (reads of this peptide / all reads for the bait, averaged over …; for chain 1 L8Y: 0.000651 average fractional NGS count over selection days 2 and 3 (reads of this peptide / all reads for the bait, averaged over …; for chain 1 L8M: 0.000134 average fractional NGS count over selection days 2 and 3 (reads of this peptide / all reads for the bait, averaged over ….

Take chain 1 L8I: the screen value is 0.00287 average fractional NGS count over selection days 2 and 3 (reads of this peptide / all reads for the bait, averaged over ….

Take chain 1 A11L: the screen value was 0.000741 average fractional NGS count over selection days 2 and 3 (reads of this peptide / all reads for the bait, averaged over …. Consider chain 1 A11N, for which the screen value is 0.000651 average fractional NGS count over selection days 2 and 3 (reads of this peptide / all reads for the bait, averaged over …. In the case of chain 1 A11M, the screen value was 0.00708 average fractional NGS count over selection days 2 and 3 (reads of this peptide / all reads for the bait, averaged over …. In the case of chain 1 A11F it was 0.000474 average fractional NGS count over selection days 2 and 3 (reads of this peptide / all reads for the bait, averaged over ….

Take chain 1 E15Y: the screen value is 0.0114 average fractional NGS count over selection days 2 and 3 (reads of this peptide / all reads for the bait, averaged over ….

As to chain 1 E15V, the screen value was 0.0659 average fractional NGS count over selection days 2 and 3 (reads of this peptide / all reads for the bait, averaged over …. The same measure for chain 1 E15L: 0.0492 average fractional NGS count over selection days 2 and 3 (reads of this peptide / all reads for the bait, averaged over …; for chain 1 E15D: 0.000913 average fractional NGS count over selection days 2 and 3 (reads of this peptide / all reads for the bait, averaged over …. Take chain 1 E15S: the screen value was 0.0548 average fractional NGS count over selection days 2 and 3 (reads of this peptide / all reads for the bait, averaged over ….

Regarding chain 1 E15F, the screen value is 0.000557 average fractional NGS count over selection days 2 and 3 (reads of this peptide / all reads for the bait, averaged over ….

As to chain 1 E15I, the screen value is 0.0148 average fractional NGS count over selection days 2 and 3 (reads of this peptide / all reads for the bait, averaged over …. The same measure for chain 1 E15T: 0.119 average fractional NGS count over selection days 2 and 3 (reads of this peptide / all reads for the bait, averaged over …; for chain 1 E15G: 0.00623 average fractional NGS count over selection days 2 and 3 (reads of this peptide / all reads for the bait, averaged over …; for chain 1 E15W: 0.00827 average fractional NGS count over selection days 2 and 3 (reads of this peptide / all reads for the bait, averaged over ….

chain 1 L7F: the screen value was 0.000853 average fractional NGS count over selection days 2 and 3 (reads of this peptide / all reads for the bait, averaged over …. The same measure for chain 1 Q5T: 0.00207 average fractional NGS count over selection days 2 and 3 (reads of this peptide / all reads for the bait, averaged over …; for chain 1 Q5N: 0.000576 average fractional NGS count over selection days 2 and 3 (reads of this peptide / all reads for the bait, averaged over …; for chain 1 Q5M: 0.000803 average fractional NGS count over selection days 2 and 3 (reads of this peptide / all reads for the bait, averaged over …. The same measure for chain 1 F13D: 0.00238 average fractional NGS count over selection days 2 and 3 (reads of this peptide / all reads for the bait, averaged over …; for chain 1 F13T: 0.00119 average fractional NGS count over selection days 2 and 3 (reads of this peptide / all reads for the bait, averaged over …; for chain 1 F13A: 0.000255 average fractional NGS count over selection days 2 and 3 (reads of this peptide / all reads for the bait, averaged over …. The same measure for chain 1 F13S: 0.000565 average fractional NGS count over selection days 2 and 3 (reads of this peptide / all reads for the bait, averaged over …; for chain 1 F13N: 0.00134 average fractional NGS count over selection days 2 and 3 (reads of this peptide / all reads for the bait, averaged over …. chain 1 F13E: the screen value was 0.000282 average fractional NGS count over selection days 2 and 3 (reads of this peptide / all reads for the bait, averaged over …. In the case of chain 1 F13K it was 0.00119 average fractional NGS count over selection days 2 and 3 (reads of this peptide / all reads for the bait, averaged over ….
